Assays:
N-cadherin = N-cadherin (UniProt P15116); details: cited from earlier work
[1] = target: ddFP-B3-inserted NCad (NCad-B3) (mouse) (UniProt P15116); assay: split reporter (BiFC, NanoBiT); dimerization-dependent fluorescent protein; time-lapse of HEK293T cells each expressing one component, from seeding for 120 min, then 10 mM EGTA for 120 min; washout of EGTA in a further experiment
[2] = target: ddFP-B1-inserted NCad (NCad-B1) (mouse) (UniProt P15116); assay: as above
[3] = target: ddFP-B3-inserted NCad (NCad-B3) (mouse) (UniProt P15116); assay: split reporter (BiFC, NanoBiT); dimerization-dependent fluorescent protein; HEK293T cells co-expressing both components (mCherry-NLS) co-cultured with cells expressing NCad without fluorescent protein (EBFP2-NLS); signal at R-R against B-R cell adhesion sites
[4] = target: ddFP-B1-inserted NCad (NCad-B1) (mouse) (UniProt P15116); assay: as above

Chain of N-cadherin (P15116 160-724): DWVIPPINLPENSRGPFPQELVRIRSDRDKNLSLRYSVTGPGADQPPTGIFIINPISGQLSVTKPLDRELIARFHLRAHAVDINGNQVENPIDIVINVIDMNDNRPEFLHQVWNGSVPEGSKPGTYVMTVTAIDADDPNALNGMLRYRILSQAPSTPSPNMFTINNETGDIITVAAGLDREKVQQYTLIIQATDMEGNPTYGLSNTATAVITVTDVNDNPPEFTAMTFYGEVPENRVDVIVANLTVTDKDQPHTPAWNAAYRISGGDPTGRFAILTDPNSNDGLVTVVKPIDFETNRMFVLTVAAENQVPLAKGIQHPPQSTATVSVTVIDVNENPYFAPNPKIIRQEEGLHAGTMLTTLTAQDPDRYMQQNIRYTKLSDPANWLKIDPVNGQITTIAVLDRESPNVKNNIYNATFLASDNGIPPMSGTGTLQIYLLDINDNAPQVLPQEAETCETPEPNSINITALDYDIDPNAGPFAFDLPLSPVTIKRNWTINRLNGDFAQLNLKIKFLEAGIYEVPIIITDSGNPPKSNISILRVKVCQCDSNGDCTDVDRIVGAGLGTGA

For N-cadherin (from UniProt P15116), which Kd (N-cadherin) is on record?
The Kd was 25 µM.

Which results are given for “ddGFP-A-inserted NCad (NCad-GA) (from UniProt P15116 26-311; P15116 312-906)”?
time to 50% of the signal after addition of 10 mM EGTA [1]: 50 min; time to 50% of the signal after addition of 10 mM EGTA [2]: 50 min; contrast of signal between R-R and B-R cell adhesion sites [3]: 7.72; contrast of signal between R-R and B-R cell adhesion sites [4]: 5.31
